Results as given in the nanobody polyreactivity screen of Harvey et al. (2022).

Experiment: yeast display, Sf9 membrane polyspecificity reagent, FACS + sequencing; frameworks hold sequencing errors
Procedure, shortened: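 Sorting gates, low and high (top ~1%), were placed on anti-HA fluorescence to track expression and on streptavidin fluorescence to track reagent binding. A clone's polyreactivity label is taken from the gate it came out of. The reagent was 10% biotinylated, detergent-solubilized Sf9 membrane, applied for 1 hour at 4 °C to galactose-induced yeast display cells.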

Sequence	polyreactivity (PSR sort gate)
QVQLVESGGGLVQAGGSLRLSCAASGSIFYHYAMGWYRQAPGKEREFVAAITRRGTSTYYADSVKGRFTISRDNAKNTVYLQMNSLKPEDTAVYYCAARYGPNMDYCGQGTQVTVSS	high polyreactivity
QVQLVESGGGLVPAGGSLRLSCAASGSIFVQNAMGWYRQAPGKERELVAVINSGDSTNYADSVKGRFTISRDNAKNTVYLQMNSLKPEDTAVYYCNADVSYTSEDQRALFTNVYYWGQGTQVTVSS	low polyreactivity
QVQLVESGGGLVQAGGSLRLSCAASGRITFSHNTMGGSRQAPGKERELVAAISSGGRTNYADSVKGRFTISRDNAKNTVYLQMNSLKPEDTAVYYCARESHYDFIYDGMDYWGQGTQVTVSS	low polyreactivity
QVQLVESGGGLVQAGGSLRLICAASGRTFKFNAMGWYRQAPGKERELVARITGGRTNYADSVKGRFTISRDNAKNTVYLQLNSLKPEDTAVYYCAADRYYGYSQDRRRYGYWGQGTQVTVSS	high polyreactivity
QVQLVESGGGLVQAGGSLRLSCAASGSTFTGYAMGWYRQAPGKERELVAGITGSGGSTYYADSVKGRFTISRDNATNTVYLQMNSLKPEDTAVFYCAAAFWYQYVWLDYYWGQGTQVTVSS	low polyreactivity
QVQLVESGGGLVQAGGSLRLSCAASGIIFGWNTMGWYRQAPGKEREFVAAISSSGGSTYADSVKGRFTISRDNAKNTVYLQMNSLKPEDTAVYYCAASKQPGSFEFDYWGQGTQVTVSS	high polyreactivity
QVQLVESGGGLVQAGGSLRLSCAASGRIFYTNAMGWSRQAPGKERELVAVISWGGDTTYYADSVKGRFTISRDNAKNTVYLQMNSLKPEDTAVYYCNADWGPTYEIYDSWGQGTQVTVSS	low polyreactivity
QVHLVESGGGLVQAGGSLRLSCAASGSTFFQYAMGWYRQAPGKERELVAAISSRGGRTYYADSVKGRFTISRDNAKNTVYLQMNRLKPEDTAVYYCATNRSVSYPYDGYYYWGQGTQVTVSS	high polyreactivity
QVQLVESGGGLVQAGGSLRLSCAASASIFYQNAMGWYRQAPGKERELVAAISSAGSTYYADSVKGRFTISRDNAKNTVYLQMNSVKPEDTAVYYLLRGQGTQVTVSS	low polyreactivity
QVQLVESGGCLEQAGGSLRLSCAASGFTFVSNDMGWYRQAPGKERELVAAISQGGGSTYYADSVKGRFTISRDNAKNTVYLQMNSLKPEDTAVYYCAAEDVYFGYDYWGQGTQVTVSS	low polyreactivity
QVQLVESGGGLVQAGGSLRLSCAASGGTFTYYTKGWYRQAPGKERELVAAISTGGRTYYADSVKGRFTISRDNAKNTVYLQMNSLKPEDTAVYYCNADYDETDVLGEFDYWGQGTQVTVSS	low polyreactivity
PLQLVESGGGLVQAGGSLRLSCAASGTIFVQTDRGWYRQAPGKERELVAAISSGSSTNYADSVNGRFTISRDNAKNTVYLQMNSLKPEDSAAYYCAVTSPYSQGYSYWGADSRDYWGQGTQVTVSS	low polyreactivity
QVQLVESGGGLVQAGGSLRLSCAASGLSSLRMLWDGIDRRLGKKGSWLPLITSGGDSTNYADSVKGRFTISRDIAKNTVYLQMNSLKPEDTAVYYCAADLDYPYGYWGQGTQVTVSS	low polyreactivity
QVQLEESGGGLVQAGGSLRLSCAASGSNFSRYAMGWYRQAPGKERELVAAISWAGNTYYADSVKGRFTISRDNAKNTVYLQMNSLKPEDTAVYYCNADRVRYLFTRYDYWGQGTQVTVSS	high polyreactivity
QVQLVESGGGLVQAGGRLRLTCAASGITFTGNAMGWYRQAPGKERELVAVITSGGSTYYADSVKGRFTISRDNAKNTVYLQMNSLKPEDTAVYYCAAPVYYYYSKAMDYWGQGTQVTVSS	high polyreactivity
QVQLVESGGGLVHAGGSLRLSCADSGRIFYANALGWSRQSPGRERELVAAISSGGSTYYADSVKGRFTSSRDNAKNTVYLQMNSLKPEDTAVYYCAVYTLKKVRPEYDYWGQGTQVTVSS	low polyreactivity

Sequence	polyreactivity (PSR sort gate)
QVQLVESGGGLVQAGGSLRLSCAASGSTFRHNAMGWYRDAPGTERELVATIRTSGGTTYYADSVKGRFTISRDNAKNTVYLQMNSLKPEDTAVYYCAAKYSLLRQYNRLDYWGQGTQVTVSS	low polyreactivity
QVQLVESGGGLVQAGGSLRLSCAASGRIFRVNSMGWYRQAPGKEREFVAAITKNGGSTYYADSVKGRFTISLDNANNTVYLQMNSLKPEDTAVYYCAVRAWDPYTGKCVYWGQGTQVTVSW	low polyreactivity
QLHLQESGGLVQAGGLRLSCAASGSVSYQEAMGWYRQAPGKERELVATISFGANTNYADSVKGRFTISRDNAKNTVYLQMNSLKPEDTAVYYCAAESLFDDYYGYWGQGTQVTVSS	low polyreactivity
HVQLVESGGGLVQAGGSLRLSCAASGRISGANMGWDRQAPGKERELGAAISNGGSTNYADSVKGRFTISRANAKNTVYLQMNSLKPEDTAVYYCAKLGPRSYSSYRYDYWGQGTQVTVSS	high polyreactivity
QVQLVESGGGLVQAGGSLRLSCAASGFTFDYYAMGWYRQAPGKERELVASITFIGGNTNYADSVKGRFTISRDNAKNTVYLQMNSLKPEDTAVYYCAADFPWDYRYWFEYWGQGTQVTVSS	low polyreactivity
QVQLVESGGGLVQAGGSLRLSCAASGFIFRQYAMGWYRQAPGKERELVAAISRSGGSTYYADSVKGRFTISRDNAKNTVYLQMNSLKPEDTAVYYCAVRYNQWYLNFGRYDYWGQGTQVTVSS	high polyreactivity
QVQLVESGGGLVQAGGSLRLSCAASGGTFGAYAMGWYRQAPGKERELVAAINVGGGSTYYADSVKGRFTISRDNAKNTVDLQMNSLKPEATAGYYCAKDLYDGYWRGDYWGQGTQVTVSS	low polyreactivity
QVQLVESGGGLVQEGGSLRLICAASGNTSPFYSMGWYRQAPGKERELVAAISANGGSTTYADSVKGRFTISRDNAKNTVYLQMNSLKTEVTAVYYCNTYYWYSGSPYVYWGQGTQVTVSS	low polyreactivity
QVQLVESGGGLVQAGGSLRLSCAASGLILYHYAMGWYREAPGKERELVAAISSGGITHYADSVKGRFTISRDNAKNTVYLQMNILKPEDNAVYYCNAVSYYWHDFDYWGQGTQVTVSS	high polyreactivity
QVQLVESGGGLVQAGGSLRLSCAASGRIFKGNAMGWYRQAPGKEREFVAAISQRGGSTYYADSVKGRFTISRDNAKNTVYLQMNSLKPEDTAVYYCAAVRKSVGVKYDYWGQGTQVTVSS	high polyreactivity
QVQLVESGGGLVQAGGSLRLSCAASGSTFAGYAMGWYRQAPGKERELVAAIRSGGSTYYADSVKGRFTISRDNAKNTVYLQMNSLKPEDTAVYYCNAVYAFNGYDYWGQVTQVTVSS	low polyreactivity
QVQLVESGGGLVQAGGSLRLSCAASGSIFYYAMGWYRQAPGKERELVAAITWRGGRTYYADSVKGRFTISRDNAKNTVYLQMNSLKPEDTAVYDFNAVAPGKYNLWGQGTQVTVSS	high polyreactivity
QVQLVESGGGLVQAGGSLRLICAASGRIFRYYAMGWYRQAPGKERELVASISWRGGSTYYADSVKGRFTISRDNAKNTVYLQMNSLKPDDTAVYYCNAAPGAFYRWWGFGSDYWGQGTQVTVSS	high polyreactivity
QVQLVESGGGLVQAGGSLRLSCAASGIFLGYAMGWYRQAPGKERELVAGISSGGGTYYADSVKGRFTISRDNAKNTVYLQMNSLKPEDTAVYYCNAASQYTFDSSFDYWGQGTQVTVSS	low polyreactivity
QVQRVESGVGLVQAGGSLRLSCAASGRIFRPYAMGWFRQARGNERELVAAITYSGGSTRYADSVKGRFTLSRDNAKNTVYIQMNSLKPEDTAVYYCAADLSYQDDPRWSYDYWGQGTHVTVSS	high polyreactivity
QVQLVESGGGLFQAGGSLRLSCAASGRTFAYYTMGWYRQAPGKERELVAAITSSGGSTYYADSEKGRFTISRDNAKNTVYLQMNSLKPEDTAVYYCNAYGLRWASRLGYDYWGQGTQVTVSS	high polyreactivity
